Substitutions are numbered along the chain they refer to. In names and notes the source's numbering stands.

Assay [1] deals with T1, endogenous long reticulon-3 (RTN3L), O95197.
T1 chain: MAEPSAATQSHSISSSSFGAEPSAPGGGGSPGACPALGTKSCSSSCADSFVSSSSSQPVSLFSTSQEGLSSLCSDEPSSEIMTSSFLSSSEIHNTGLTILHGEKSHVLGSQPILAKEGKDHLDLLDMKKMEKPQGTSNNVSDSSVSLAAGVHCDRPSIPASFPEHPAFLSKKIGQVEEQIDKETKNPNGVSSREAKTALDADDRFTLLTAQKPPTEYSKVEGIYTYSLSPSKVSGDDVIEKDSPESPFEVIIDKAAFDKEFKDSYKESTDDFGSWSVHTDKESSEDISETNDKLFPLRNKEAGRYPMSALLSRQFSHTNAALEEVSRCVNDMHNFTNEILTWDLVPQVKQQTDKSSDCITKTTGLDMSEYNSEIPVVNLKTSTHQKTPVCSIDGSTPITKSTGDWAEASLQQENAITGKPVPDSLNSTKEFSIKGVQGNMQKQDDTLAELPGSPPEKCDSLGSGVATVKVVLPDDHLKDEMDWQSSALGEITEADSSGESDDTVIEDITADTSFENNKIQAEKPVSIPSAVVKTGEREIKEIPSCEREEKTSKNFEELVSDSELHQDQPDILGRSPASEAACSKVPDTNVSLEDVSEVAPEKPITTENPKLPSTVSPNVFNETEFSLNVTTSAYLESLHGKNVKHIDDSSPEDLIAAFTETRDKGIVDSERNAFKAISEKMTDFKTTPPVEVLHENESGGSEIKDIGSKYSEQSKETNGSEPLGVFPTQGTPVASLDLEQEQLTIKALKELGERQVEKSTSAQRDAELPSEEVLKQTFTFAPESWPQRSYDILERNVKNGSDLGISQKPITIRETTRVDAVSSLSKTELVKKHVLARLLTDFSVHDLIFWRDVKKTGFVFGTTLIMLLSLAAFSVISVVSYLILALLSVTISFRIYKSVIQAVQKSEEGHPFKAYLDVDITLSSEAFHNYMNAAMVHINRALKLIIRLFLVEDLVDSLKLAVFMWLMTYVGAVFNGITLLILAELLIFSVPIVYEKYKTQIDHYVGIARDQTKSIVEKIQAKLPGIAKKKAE
Description: co-immunoprecipitation (anti-FLAG IP, densitometry). The following applies: chain shown with the change; MCF7 cells transfected for 48 h, crosslinking; n = 3; parent: est. 1.0; read off a plot.

In assay [2] the target is T2, endogenous family with sequence similarity 134 member B (FAM134B), Q9H6L5.
T2 chain: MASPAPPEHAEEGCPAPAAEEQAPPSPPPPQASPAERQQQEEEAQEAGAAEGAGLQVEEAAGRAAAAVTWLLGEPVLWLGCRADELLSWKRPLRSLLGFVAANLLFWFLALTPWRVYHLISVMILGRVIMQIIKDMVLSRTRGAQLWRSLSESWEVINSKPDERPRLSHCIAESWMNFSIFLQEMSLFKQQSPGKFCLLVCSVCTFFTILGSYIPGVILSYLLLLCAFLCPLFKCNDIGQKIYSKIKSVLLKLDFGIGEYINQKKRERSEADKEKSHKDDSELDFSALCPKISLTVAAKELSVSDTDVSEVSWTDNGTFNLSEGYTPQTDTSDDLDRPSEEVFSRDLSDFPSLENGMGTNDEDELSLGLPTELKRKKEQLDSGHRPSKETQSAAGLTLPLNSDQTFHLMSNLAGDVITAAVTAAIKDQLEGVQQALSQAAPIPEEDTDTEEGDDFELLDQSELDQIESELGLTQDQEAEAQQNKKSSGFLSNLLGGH
The description is as above. Conditions: chain shown with the change; MCF7 cells transfected for 48 h, crosslinking; n = 3; parent: est. 1.0; read off a plot.

B1: FLAG-tagged wild-type Rab32, Q13637 T39N (protein)
chain: MAGGGAGDPGLGAAAAPAPETREHLFKVLVIGELGVGKNSIIKRYVHQLFSQHYRATIGVDFALKVLNWDSRTLVRLQLWDIAGQERFGNMTRVYYKEAVGAFVVFDISRSSTFEAVLKWKSDLDSKVHLPNGSPIPAVLLANKCDQNKDSSQSPSQVDQFCKEHGFAGWFETSAKDNINIEEAARFLVEKILVNHQSFPNEENDVDKIKLDQETLRAENKSQCC
Consider B1, for which the ratio to parent worked out at 1.3 in assay [1] and 0.75 in assay [2].

B2: FLAG-tagged wild-type Rab32, Q13637 Q85L (protein)
chain: B1 chain with N39T, Q85L
B2: the ratio to parent in assay [1] is 3.4; in assay [2], 0.95.

The values are drawn from paper PMC8573869.
